The source of these data is US20250034248A1 (ALBERT EINSTEIN COLLEGE OF MEDICINE, published 2025).

What is called Kd is the equilibrium constant for the complex coming apart. A low value points to tighter binding. The term koff denotes the rate constant with which the complex falls apart. By kon is commonly meant a measure of how fast the partners come together. Low values mean slower complex formation, high ones faster complex formation.

Read-outs that look alike come from different tables or passages of the source.

Test [1] addresses T1, human Tim-3 protein (human, UniProt Q8TDQ0 22-202, limits assumed). Put plainly: Surface plasmon resonance.
For test [2], the target named is T1, human Tim-3 protein. Put plainly: surface plasmon resonance. (In general: Surface plasmon resonance follows binding to a sensor surface in real time, without labels.)
The target of test [3] is T1, human Tim-3 protein. Nature of the test: surface plasmon resonance. The source holds these as a separate data set.
Test [4] concerns the target T2, mouse Tim-3 expressed on cell lines (mouse, UniProt Q8VIM0 20-281).
T2 construct: whole, on cells
Put plainly: FACS on cell lines expressing mouse Tim-3.

B1: mAb 15B4 (antibody, V domains shown)
VH: EVQLQQSGAEVVRPGALVKLSCKASGFNIKDYYMHWVRQRPEQGLEWIGWIDPENDNTIYDPKFQDRASITADTSSNTAYLQLSSLTSEDTAVYYCARDFGYVAWLVYWGQGTLVTVSA
VL: DIVMTQSQEFMSTSVGDRVSITCKASQNVDTAVAWYQQKPGQSPKLLIYSASNRYTGVPDRFTGTGSGTDFTLTINNMQSEDLADYFCQQYSSYPTFGGRTKLEIKR
notes: Mouse hybridoma antibody, IgG1 with kappa chain
Take B1: binding with human Tim-3 protein [1] was characterised by a dissociation constant (Kd) of 0.32 nM. For the same molecule, in the test with human Tim-3 protein [2], the koff came out at 0.00029 s⁻¹ and the kon stood at 910000 M⁻¹ s⁻¹.

B2: mAb 50B5 (antibody, V domains shown)
VH: EVQLQQSGPELVKPGASMKISCKASGYSFTGYTINWVKQSHGKNLEWIGLFNPYNGGTTFNQKFKGKATLTVDKSSSTAYMELLSLTSEDSAVYYCARRYYGYDAMDYWGQGTSVTVSS
VL: NIMMTQSPSSLAVSAGEKVTMSCKSSQSVLYSSNQKNHLAWYQQKPGQSPKLLIYWASTRESGVPDRFTGSGSGTDFTLTISSVQAEDLAVYYCHQYLSSYTFGGGTKLEIK
notes: as for B1
Take B2: the affinity with human Tim-3 protein [1], expressed as Kd, was 0.13 nM. Moreover, in the test with human Tim-3 protein [3], the koff stood at 2.35e-05 s⁻¹ and the on-rate (kon) is 187000 M⁻¹ s⁻¹. For the same molecule, the binding result in test [4] is given as “no binding”.
